For assay [1], the target named is T1, FcRn-p3 fusion protein (human, UniProt P55899 24-297; P61769 21-119).
T1 construct: baculovirus expressed; coated on ELISA wells; not shown: amino terminal part of bacteriophage p3 protein and CVDE protein
Put plainly: phage ELISA pH6.

The target in assay [2] is T1, FcRn-p3 fusion protein. Put plainly: phage ELISA pH6 (est.). In general terms: ELISA stands for enzyme-linked immunosorbent assay.

Among the data in patent USRE46585 (LABORATOIRE FRANCAIS DU FRACTIONNEMENT ET DES …, dated 2017) are Ratio/Fc-H and Ratio/FWT values, retold here.

T1 sequence (P55899 24-297, chain 1 of 2): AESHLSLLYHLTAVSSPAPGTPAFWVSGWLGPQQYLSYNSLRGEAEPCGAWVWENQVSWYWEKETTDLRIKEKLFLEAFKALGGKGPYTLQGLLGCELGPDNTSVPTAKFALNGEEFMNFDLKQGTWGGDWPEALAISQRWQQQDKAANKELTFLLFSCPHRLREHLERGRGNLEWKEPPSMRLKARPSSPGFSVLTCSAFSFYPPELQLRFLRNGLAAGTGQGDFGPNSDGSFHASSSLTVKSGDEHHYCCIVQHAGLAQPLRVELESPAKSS
T1 sequence (P61769 21-119, chain 2 of 2): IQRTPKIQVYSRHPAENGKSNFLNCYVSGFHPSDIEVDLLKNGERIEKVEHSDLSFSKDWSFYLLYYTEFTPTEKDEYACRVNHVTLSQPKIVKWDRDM

B1: T5A_28 (other)
chain: CPPCPAPELLGGPSVLLFPPKPKDTLMISRTPEVTCVVEDVSHEDPEVKFNWYVDGVEVHNAKTKPREEQYNSTYRVVSVLTVLHQDWLNGKEYKCKVSNKALPAPIEKTISKAKGQPREPQVYTLPPSRDELTKNQVSLTCLVKGFYPSDIVVEWESNGQPENNYKTTPPVLDSDGSFFLYSKLTVDKSRWQQGNVFSCSVMHEALHYHYTQKSLSLSPGK
notes: EU numbering
Take B1: the Ratio/Fc-H with FcRn-p3 fusion protein [1] was 2.5 fold. Besides, in the assay with FcRn-p3 fusion protein [2], the Ratio/FWT was found to be 7.9 fold.

B2: T5A_52 (other)
chain: CPPCPAPELLGGPSVFLFPPKPKDTLMISRTPEVTCVVVDVSHEDPEVKFNWYVDGVEVHNAKTKPREEQYNSTYRVVSVLTVLHQDWLDGKEYKCKVSNKVLPVPIEKTISKAKGQPREPQVYTLPPSRDELTKNQVSLTCLVKGFYPSDIAVEWESNGQPENNYKTTPPVLDSDGSFFLYSKLTVDKSRWQQGNVFSCSVMHEALHYHYTQKSLSLSPGK
notes: EU numbering
With B2, the Ratio/Fc-H with FcRn-p3 fusion protein [1] came to 1.9 fold. The Ratio/FWT with FcRn-p3 fusion protein [2] is 5.9 fold.

B3: T7A_17 (other)
chain: CPPCPAPELLGGPSVFLFPPKPKDTLMISRTPEVTCVVEDVSHEDPEVKFNWYVDGVEVHNAKTKSREEQYNSTYRVVSVLTVLHQDWLNGKEYKCKVSNKALPAPIEKTISKAKGQPREPQVYTLPPSRDELTKNRVSLTCLVKGFYPSDIVVEWESNGQPENNYKTTPPVLDSDGSFFLYSKLTVDKSRWQQGNVFSCSVMHEALHYHYTQKSLSLSPGK
notes: EU numbering
In the case of B3, in the assay with FcRn-p3 fusion protein [1], the Ratio/Fc-H worked out at 2 fold. For the same molecule, the Ratio/FWT with FcRn-p3 fusion protein [2] was 6.3 fold.

B4: T5A_29 (other)
chain: CPPCPAPELLGGPSVFLFPPKPKDTLMISRTPEVTCVVVDVSHEDPEVKFNWYVDGVEVHNAKTKPREEQYNSTYRVVSVLTVLHQDWLDGKEYKCKVSNKALPAPIEKTISKAKGQPREPQVYTLPPSRDELTKNQVSLTCLVKGFYPSDIAVEWVSNGQPENNYKTTPPVLDSDGSFFLYSKLTVDKSRWQQGNVFSCSVMHEALHYHYTQKSLSLSPGK
notes: EU numbering
In the case of B4, the Ratio/Fc-H in the assay with FcRn-p3 fusion protein [1] came out at 1.9 fold. Moreover, in the assay with FcRn-p3 fusion protein [2], the Ratio/FWT is 6 fold.

B5: T5A_44 (other)
chain: CPPCPAPELLGGPSVLLFPPKPKDTLMISRTPEVTCVVEDVSHEDPEVKFNWYVDGVEVHNAKTKPREEQYNSTYRVVSVLPVLHQDWLNGKEYKCKVSNKALPAPIEKTISKAKGQPREPQVYTLPPSRDELTKNQVSLTCLVKGFYPSDITVEWESNGQPENNYKTTPPMLDSDGSFFLYSKLTVDKSRWQQGNVFSCSVMHEALHNHYTQKSLSLSPGK
notes: EU numbering
On to B5, for which the Ratio/Fc-H with FcRn-p3 fusion protein [1] stood at 1.2 fold. In addition, in the assay with FcRn-p3 fusion protein [2], the Ratio/FWT came out at 3.8 fold.

B6: T6A_40 (other)
chain: CPPCAAPELLGGPSVLLFPPKPKDTLMISRTPEVTCVVEDVSHEDPEVKFNWYVDGVEVHNAKTKPREEQYNSTYRVVSVLTVLHQDWLNGKEYKCKVSNKALPAPIEKTISKAKGQPREPQVYTLPPSRDELTKNQVSLTCLVKGFYPSDIVVEWESNGQPENNYKTTPPVLDSDGSFFLYSKLTVDKSRWQQGTVFSCSVMHEALHNHYTQKSLSLSPGK
notes: EU numbering
Turning to B6, the Ratio/Fc-H with FcRn-p3 fusion protein [1] is 2.8 fold. Also, in the assay with FcRn-p3 fusion protein [2], the Ratio/FWT was determined as 9.1 fold.

B7: T6A_47 (other)
chain: CPPCTAPELLGGPSVFLFPPKPKDTLMISRTPEVTCVVVDVSHEDPEVKFNWYVDGVEVHNAKTKPREEQYNSTYRVVSVLTVLHQDWLNGKEYTCKVSNKALPAPIEKTISKAKGQPREPQVYTLPPSRDELTKNQVSLTCLVKGFYPSDIAVEWESNGQPENNYKTTPPVLDSDGSFFLYSKLTVDKSRWQQGNVFSCSVMHEALHYHYTQKSLSLSPGK
notes: EU numbering
Turning to B7, the Ratio/Fc-H with FcRn-p3 fusion protein [1] is 2.8 fold. In the assay with FcRn-p3 fusion protein [2], the Ratio/FWT was 9.1 fold.

B8: T5A_59 (other)
chain: CPPCPAPELLGGPSVFLFPPKPKDTLMISRTPEVTCVVVDVSHEDPEVKFNWYVDGVEVHNAKTKPREEQYNSTYRVVSVLTVLHQDWLNGKEYKCKVSNKALPAPIEKTISKAKGRPREPQVYTLPPSGDELTKNQVSLTCLVKGFYPSDIAVEWVSNGQPENNYKTTPPVLDSDGSFFLYSKLTVDKSRWQQGNVFSCSVMHEALHYHYTQKSLSLSPGK
notes: EU numbering
With B8, the Ratio/Fc-H in the assay with FcRn-p3 fusion protein [1] turned out to be 2.4 fold. Besides, the Ratio/FWT with FcRn-p3 fusion protein [2] amounted to 7.8 fold.

B9: T6A_13 (other)
chain: CPPCTAPELLGGPSVFLFPPKPKDTLMISRTPEVTCVVVDVSHEDPEVKFNWYVDGVEVHNAKTKPREEQYNSTYRVVSVLTVLHQDWLDGKEYKCKVSNKALPVPIEKTISKAKGQPREPQVYTLPPSRDELTKNRVSLTCLVKGFYPSDIAVEWESNGQPENNYKTTPPVLDSDGSFFLYSKLTVDKSRWQQGNVFSCSVMHEALHYHYTQKSLSLSPGK
notes: EU numbering
With B9, in the assay with FcRn-p3 fusion protein [1], the Ratio/Fc-H stood at 2.9 fold. Moreover, the Ratio/FWT in the assay with FcRn-p3 fusion protein [2] worked out at 9.3 fold.

B10: T5A_37 (other)
chain: CPPCPAPELLGGPSVFLFPPKPKDTLMISRTPEVTCVVVDVSHEDPEVKFNWYVDGVEVHNAKTKPREEQYNGTYRVVSVLTVLHQDWLDGKEYKCKVSNKALPVPIEKTISKAKGQPREPQVYTLPPSRDELTKNQVSLTCLVKGFYPSDIAVEWESNGQPENNYKTTPPVLDSDGSFFLYSKLTVDKSRWQQGNVFSCSVMHEALHYHYTQKSLSLSPGK
notes: EU numbering
Turning to B10, the Ratio/Fc-H with FcRn-p3 fusion protein [1] is 2.2 fold. For the same molecule, the Ratio/FWT with FcRn-p3 fusion protein [2] was 7 fold.

B11: T5A_51 (other)
chain: CPPCPAPELLGGPSVFLFPPKPKDTLMISRTPEVTCVVEDVSHEDPEVKFNWYVDGVEVHNAKTKPREEQYNSTYRVVSVLTVLHQDWLNGKEYKCKVSNKALPAPIEKTISKAKGQPREPQVYTLPPSRDELTKNQVSLTCLVKGFYPSDIVVEWESNGQPENNYKTTPPVLDSDGSLFLYSKLTVDKSRWQQGNVFSCSVMHEALHSHYTQKSLSLSPGK
notes: EU numbering
Turning to B11, the Ratio/Fc-H with FcRn-p3 fusion protein [1] turned out to be 2.8 fold. The Ratio/FWT with FcRn-p3 fusion protein [2] turned out to be 9 fold.

B12: T6A_93 (other)
chain: CPPCPAPELLGGPSVFLFPPKPKDTLMISRTPEVTCVVVDVSHEDPEVKFNWYVDGVEVHNAKTKPREEQYNSKYRVVSVLTVLHRDWLDGKEYKCKVSNKALPAPIEKTISKAKGQPREPQVYTLPPSRDELTKNQVSLTCLVKGFYPSDIAVEWESNGQPENNYKTTPPVLDSDGSFFLYSKLTVDKSRWQQGNVFSCSVMHEALHYHYTQKSLSLSPGK
notes: EU numbering
Turning to B12, the Ratio/Fc-H with FcRn-p3 fusion protein [1] stood at 1.1 fold. In the assay with FcRn-p3 fusion protein [2], the Ratio/FWT turned out to be 3.5 fold.

B13: T5A_40 (other)
chain: CPPCTAPELLGGPSVFLFPPKPKDTLMISRTPEVTCVVEDVSHEDPEVKFNWYVDGVEVHNAKTKPREEQYNSTYRVVSVLPVLHQDWLNGKEYKCKVSNKALPAPIEKTISKAKGQPREPQVYTLPPSRDELTKNQVSLTCLVKGFYPSDIVVEWESNGQPENNYKTTPPVLDSDGSFFLYSKLTVDKSRWQQGTVFSCSVMHEALHNHYTQKSLSLSPGK
notes: EU numbering
In the case of B13, in the assay with FcRn-p3 fusion protein [1], the Ratio/Fc-H turned out to be 3.4 fold. Moreover, the Ratio/FWT in the assay with FcRn-p3 fusion protein [2] was 10.8 fold.

B14: T5A_90 (other)
chain: CPPCPAPELLGGPSVFLFPPKPKDTLMISRTPEVTCVVVDVSHEDPEVKFNWYVDGVEVHNAKTKPREEQYNSTYRVVSVLTVLHQDWLDGKEYKCKVSNKALPVPIEKTISKAKGQPREPQVYTLPPSRDELTKNQVSLTCLVKGFYPSDIAVEWESNGQPENNYRTTPPVLDSDGSFFLYSKLTVDKSRWQQGNVFLCSVMHEALHYHYTQKSLSLSPGK
notes: EU numbering
Turning to B14, in the assay with FcRn-p3 fusion protein [1], the Ratio/Fc-H is 1.8 fold. Moreover, the Ratio/FWT with FcRn-p3 fusion protein [2] was 5.7 fold.
